# PMC7185567
# T1: ISY1 (human, UniProt Q9ULR0 1-285)
# T1 sequence: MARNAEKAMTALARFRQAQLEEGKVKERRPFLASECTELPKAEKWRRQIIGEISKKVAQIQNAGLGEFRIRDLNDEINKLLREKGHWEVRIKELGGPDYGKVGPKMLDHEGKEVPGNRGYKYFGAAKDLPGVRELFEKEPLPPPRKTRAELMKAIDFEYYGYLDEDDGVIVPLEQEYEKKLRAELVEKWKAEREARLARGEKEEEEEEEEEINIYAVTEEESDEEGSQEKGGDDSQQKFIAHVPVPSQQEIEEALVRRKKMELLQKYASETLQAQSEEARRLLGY
# Columns and labels:
# ISY1 = target: T1, ISY1; assay: EMSA
# [1] = target: APE1 (apurinic/apyrimidinic endonuclease 1) (human, UniProt P27695 1-318); assay: EMSA
# Chain of APE1 (apurinic/apyrimidinic endonuclease 1) (P27695 whole entry): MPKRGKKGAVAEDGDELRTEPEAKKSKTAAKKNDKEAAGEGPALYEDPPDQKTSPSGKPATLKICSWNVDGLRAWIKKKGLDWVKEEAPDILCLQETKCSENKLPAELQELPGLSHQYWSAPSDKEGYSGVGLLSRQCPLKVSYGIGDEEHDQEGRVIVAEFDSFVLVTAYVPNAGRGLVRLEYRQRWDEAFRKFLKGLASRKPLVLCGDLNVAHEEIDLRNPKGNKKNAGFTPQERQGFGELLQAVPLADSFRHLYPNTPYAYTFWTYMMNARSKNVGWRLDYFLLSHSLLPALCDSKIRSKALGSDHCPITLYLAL
binder,measurement,setting,value
37-mer control DNA duplex (no AP site) (dsDNA) DNA 1: CCTGCAGCTGGTGCAAAAGTATTGCGGCGTGTACGGT DNA 2: ACCGTACACGTTTCCTTACGGGGTCACCAGCTGCAGG,binding result,ISY1,no binding
same,binding result,[1],no binding
